This note sets out measurements from US20230121248A1.

What all share (assay): cell-based or functional assay
Assay [1] addresses anti-CD19 chimeric antigen receptor on anti-CD19 CAR-T cells.
Assay [2] has as its target mock CAR-T cells (CAR-T not able to recognize CD19).
For assay [3], the target named is native JAM-A on CAL27 cells (UniProt Q9Y624).
Sequence of UniProt Q9Y624 (Q9Y624 28-299 limits assumed): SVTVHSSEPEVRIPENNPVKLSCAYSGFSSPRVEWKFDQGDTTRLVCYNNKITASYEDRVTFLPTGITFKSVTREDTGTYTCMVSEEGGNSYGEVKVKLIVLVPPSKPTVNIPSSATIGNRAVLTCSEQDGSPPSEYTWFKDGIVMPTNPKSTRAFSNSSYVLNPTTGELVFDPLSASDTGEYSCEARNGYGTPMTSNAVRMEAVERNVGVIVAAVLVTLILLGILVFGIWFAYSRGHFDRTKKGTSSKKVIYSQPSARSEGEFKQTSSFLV

With “CM19XA (CD19-GS linker-JAM-A-pHLIP fusion protein with N-terminal 6xHis tag)”, in assay [1], the proliferation (ATP fold of control) of A549 cells 72 h after the anti-CD19 CAR-T killing assay, 1 uM CM19XA worked out at 0.74 fold and the proliferation (ATP fold of control) of CAL27 cells 72 h after the anti-CD19 CAR-T killing assay, 1 uM CM19XA is 0.72 fold. In assay [2], the proliferation (ATP fold of control) of A549 cells 72 h after the mock CAR-T killing assay, 1 uM CM19XA worked out at 1.03 fold and the proliferation (ATP fold of control) of CAL27 cells 72 h after the mock CAR-T killing assay, 1 uM CM19XA amounted to 1.01 fold.

“soluble JAM-A protein (extracellular domain of JAM-A fused with MBP) (from UniProt Q9Y624 28-238)”: the proliferation of CAL27 cells (ATPlite, ratio to untreated control), 1 uM soluble JAM-A in assay [3] turned out to be 1.24.
